For 94 variants, protein stability index results are on record in the supplement of paper PMC10567573.

The chains are these.
B1: RSPH3 (parent)
chain: MTVKPAKAASLARNLAKRRRTYLG
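Note: lentivirally expressed fusions sorted by FACS into six bins by GFP to DsRed ratio, PSI derived from sequencing read proportions per bin multiplied by bin number.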

In this series the parent is B1. In words: protein stability index of a GFP-peptide fusion (GPS, HEK-293T) (PSI 1-6); higher = more stable. The settings on record: c terminus: a fixed tail appended.
As to MTVKPAKAASLARNLAKCRRTYLG [R18C], the protein stability index is 2.62. MTVKPAKAASLARNLAKGRRTYLG [R18G]: the protein stability index is 3.22. As for MTVKPAKAASLARNLAKDRRTYLG [R18D], the protein stability index was 3. MTVKPAKAASLARNLAKARRTYLG [R18A]: the protein stability index stood at 3.3.

With MTVKPAKAASLARNLAKERRTYLG [R18E], the protein stability index was determined as 3.33. MTVKPAKAASLARNLAKFRRTYLG [R18F]: the protein stability index turned out to be 2.71.

MTVKPAKAASLAKNLAKRRRTYLG [R13K]: the protein stability index came to 3.08. The value for MTVKPAKAASLAGNLAKRRRTYLG [R13G] was 2.86; that for MTVKPAKAASLAINLAKRRRTYLG [R13I] was 2.7. As to MTVKPAKAASLAHNLAKRRRTYLG [R13H], the protein stability index turned out to be 2.42. To MTVKPAKAASLAWNLAKRRRTYLG [R13W] belongs 1.8; to MTVKPAKAASLAVNLAKRRRTYLG [R13V], 2.56. MTVKPAKAASLASNLAKRRRTYLG [R13S]: the protein stability index amounted to 2.8. As for MTVKPAKAASLANNLAKRRRTYLG [R13N], the protein stability index stood at 3.63. The value for MTVKPAKAASLAMNLAKRRRTYLG [R13M] was 2.39; that for MTVKPAKAASLAFNLAKRRRTYLG [R13F] was 2.29; that for MTVKPAKAASLATNLAKRRRTYLG [R13T] was 2.66. For MTVKPAKAASLALNLAKRRRTYLG [R13L], the protein stability index turned out to be 2.36. With MTVKPAKAASLAPNLAKRRRTYLG [R13P], the protein stability index stood at 2.48.

MTVKPAKAASLAQNLAKRRRTYLG [R13Q]: the protein stability index was 3.48. Turning to MTVKPAKAASLARNLWKRRRTYLG [A16W], the protein stability index came out at 1.82.

Consider MTVKPAKAASLARNLYKRRRTYLG [A16Y], for which the protein stability index was determined as 2.53.

With MTVKPAKAASLARNLCKRRRTYLG [A16C], the protein stability index was 2.72. As to MTVKPAKAASLARNLSKRRRTYLG [A16S], the protein stability index amounted to 3.36. Regarding MTVKPAKAASLARNLPKRRRTYLG [A16P], the protein stability index came to 3.42. As for MTVKPAKAASLARNLEKRRRTYLG [A16E], the protein stability index was found to be 2.15.

On to MTVKPAKAASLARNLGKRRRTYLG [A16G], for which the protein stability index is 3.15. Consider MTVKPAKAASLARNLFKRRRTYLG [A16F], for which the protein stability index is 2.48. Consider MTVKPAKAASLARNLKKRRRTYLG [A16K], for which the protein stability index amounted to 3.44. Take MTVKPAKAASLARNLDKRRRTYLG [A16D]: the protein stability index was 3.04.

As to MTVKPAKAASLARNLRKRRRTYLG [A16R], the protein stability index stood at 3.35.

In the case of MTVKPAKAASLARNLIKRRRTYLG [A16I], the protein stability index came to 2.28. Take MTVKPAKAASLARNLTKRRRTYLG [A16T]: the protein stability index worked out at 2.69.

Take MTVKPAKAASLARNLVKRRRTYLG [A16V]: the protein stability index stood at 3.28. For the variant MTVKPAKAASLARNLMKRRRTYLG [A16M], the protein stability index was found to be 2.57. Consider MTVKPAKAASLARNLQKRRRTYLG [A16Q], for which the protein stability index worked out at 2.19. In the case of MTVKPAKAASLARNLNKRRRTYLG [A16N], the protein stability index turned out to be 2.72. Take MTVKPAKAASLARNLLKRRRTYLG [A16L]: the protein stability index stood at 2.35. Take MTVKPAKAASLARNLHKRRRTYLG [A16H]: the protein stability index was determined as 3.91.

MTVKPAKAASLARNMAKRRRTYLG [L15M]: the protein stability index worked out at 2.58. As for MTVKPAKAASLARNTAKRRRTYLG [L15T], the protein stability index was 3.35.

Take MTVKPAKAASLARNFAKRRRTYLG [L15F]: the protein stability index stood at 2.08.

For MTVKPAKAASLARNPAKRRRTYLG [L15P], the protein stability index is 3.75. MTVKPAKAASLARNQAKRRRTYLG [L15Q]: the protein stability index worked out at 3.34. For the variant MTVKPAKAASLARNCAKRRRTYLG [L15C], the protein stability index was found to be 3.14.

Regarding MTVKPAKAASLARNEAKRRRTYLG [L15E], the protein stability index amounted to 4.42. As to MTVKPAKAASLARNHAKRRRTYLG [L15H], the protein stability index is 3.32. Take MTVKPAKAASLARNSAKRRRTYLG [L15S]: the protein stability index was found to be 3.75. Regarding MTVKPAKAASLARNVAKRRRTYLG [L15V], the protein stability index came to 4.02. For the variant MTVKPAKAASLARNDAKRRRTYLG [L15D], the protein stability index was found to be 4.11. Regarding MTVKPAKAASLARNRAKRRRTYLG [L15R], the protein stability index came to 3.92.

With MTVKPAKAASLARNKAKRRRTYLG [L15K], the protein stability index was determined as 3.48.

As for MTVKPAKAASLARNYAKRRRTYLG [L15Y], the protein stability index was 2.84. Turning to MTVKPAKAASLARNNAKRRRTYLG [L15N], the protein stability index is 3.56.

Turning to MTVKPAKAASLARNAAKRRRTYLG [L15A], the protein stability index was found to be 4.08. On to MTVKPAKAASLARNIAKRRRTYLG [L15I], for which the protein stability index came to 3.14. As to MTVKPAKAASLARNGAKRRRTYLG [L15G], the protein stability index was determined as 4.08. Consider MTVKPAKAASLARNLARRRRTYLG [K17R], for which the protein stability index was determined as 3.04. Regarding MTVKPAKAASLARNLAWRRRTYLG [K17W], the protein stability index is 1.92. To MTVKPAKAASLARNLAGRRRTYLG [K17G] belongs 3.5; to MTVKPAKAASLARNLAVRRRTYLG [K17V], 2.64; to MTVKPAKAASLARNLAFRRRTYLG [K17F], 2.1. Consider MTVKPAKAASLARNLAQRRRTYLG [K17Q], for which the protein stability index turned out to be 2.49. As to MTVKPAKAASLARNLATRRRTYLG [K17T], the protein stability index was 3.

For the variant MTVKPAKAASLARNLADRRRTYLG [K17D], the protein stability index is 3.25. To MTVKPAKAASLARNLAIRRRTYLG [K17I] belongs 2.46; to MTVKPAKAASLARNLALRRRTYLG [K17L], 2.61. Turning to MTVKPAKAASLARNLAYRRRTYLG [K17Y], the protein stability index stood at 2.38. On to MTVKPAKAASLARNLASRRRTYLG [K17S], for which the protein stability index was determined as 2.91. To MTVKPAKAASLARNLAPRRRTYLG [K17P] belongs 3.02; to MTVKPAKAASLARNLAMRRRTYLG [K17M], 2.8. In the case of MTVKPAKAASLARNLANRRRTYLG [K17N], the protein stability index worked out at 2.57. In the case of MTVKPAKAASLARNLAHRRRTYLG [K17H], the protein stability index came to 2.99. In the case of MTVKPAKAASLARNLACRRRTYLG [K17C], the protein stability index is 1.99.

For the variant MTVKPAKAASLARNLAARRRTYLG [K17A], the protein stability index was found to be 3.39. Consider MTVKPAKAASLARNLAERRRTYLG [K17E], for which the protein stability index is 2.99. Regarding MTVKPAKAASLARALAKRRRTYLG [N14A], the protein stability index was found to be 1.87.

Turning to MTVKPAKAASLARPLAKRRRTYLG [N14P], the protein stability index worked out at 2.8.

For the variant MTVKPAKAASLARTLAKRRRTYLG [N14T], the protein stability index was 3.29. MTVKPAKAASLARQLAKRRRTYLG [N14Q]: the protein stability index was found to be 3.41. As to MTVKPAKAASLARWLAKRRRTYLG [N14W], the protein stability index was 2.67. Consider MTVKPAKAASLARKLAKRRRTYLG [N14K], for which the protein stability index is 2.4. Take MTVKPAKAASLARYLAKRRRTYLG [N14Y]: the protein stability index is 2.75. With MTVKPAKAASLARGLAKRRRTYLG [N14G], the protein stability index came to 3.21. MTVKPAKAASLARELAKRRRTYLG [N14E]: the protein stability index worked out at 2.88.

On to MTVKPAKAASLARILAKRRRTYLG [N14I], for which the protein stability index stood at 1.22. For the variant MTVKPAKAASLARMLAKRRRTYLG [N14M], the protein stability index was found to be 2.39.

In the case of MTVKPAKAASLARHLAKRRRTYLG [N14H], the protein stability index worked out at 1.94. Consider MTVKPAKAASLARCLAKRRRTYLG [N14C], for which the protein stability index was determined as 2.14. On to MTVKPAKAASLARVLAKRRRTYLG [N14V], for which the protein stability index was found to be 2.53. As to MTVKPAKAASLARDLAKRRRTYLG [N14D], the protein stability index was determined as 3.08. On to MTVKPAKAASLARRLAKRRRTYLG [N14R], for which the protein stability index was 2.13.

For MTVKPAKAASLARFLAKRRRTYLG [N14F], the protein stability index was 1.96. With MTVKPAKAASLARSLAKRRRTYLG [N14S], the protein stability index turned out to be 2.62.
